The record followed here is a protein production outcome set (Wang et al. 2014).

A short description of the series: label from the status in PepcDB records.

With “MSLLTEVETYVLSIIPSGPLKAEIAQKLEDVFAGKNTDLEALMEWLKTRPILSPLTKGILGFVFTLTVPSERGLQRRRFVQNALNGNGDPNNMDRAVKLYKKLKREITFHGAKEVALSYSTGALASCMGLIYNRMGTVTTEVAFGLVCATCEQIADSQHRSHRQMATITNPLIRHENRMVLASTTAKAMEQMAGSSEQAAEAMEVANQARQMVQAMRTIGTHPNSSAGLRDNLLENLQAYQKRMGVQMQRFK”, the protein production entry is given as “not failed”.

In the case of “MSLMLSHNPIVEPFALAHATIVTGDKAGTILRNMTIVVGADGRIEQVAPSIETSIPAEYHYLDGTGKIVMPGLINAHTHLFSQGKPLNPKLATPKGQRMVATFAHSPLGKPYMAATVKHNATTLLESGVTTIRTLGDVGYEVVTLRDQIDAGQILGPRILASGPLMAIPEGHGAPLIALTSGTPEEARTAVAQNLKAGVNAIKIAATGGVTDAQEIGEAGSPQMSVEQMRAICDEAHQYGVIVGAHAQSPEGVRRSLLAGVDTIEHGSVLDDELIGMFRHNPNALRGYSALIPTLSAGLPLTLLGQDVTGITDIQLENSKNVVGGMVSGARQAHEAGLMIGVGTDTGMTFVPQYATWRELELLVAYAGFSPAEALHAATAVNASILGVDAETGSLEVGKSADLLVLNANPLDDLRALEHPALVIAAGHPVWRPGPKRFADIDALLDEAYAEGHHHHHH”, the protein production entry is on record as “not failed”.

As for “MSLNGSRRIPQPIRWAMVGGGSQSQIGYIHRCAALRDNTFVLVAGAFDIDPIRGSAFGEQLGVDSERCYADYLSMFEQEARRADGIQAVSIATPNGTHYSITKAALEAGLHVVCEKPLCFTVEQAENLRELSHKHNRIVGVTYGYAGHQLIEQAREMIAAGELGDVRMVHMQFAHGFHSAPVEAQSQATQWRVDPRQAGPSYVLGDVGTHPLYLSEVMLPDLKIKRLMCSRQSFVASRAPLEDNAYTLMEYEGGAMGMVWSSAVNAGSMHGQKIRVIGSRASLEWWDERPNQLSFEVQGQPAQILERGMGYLHPNALIDDRIGGGHPEGLFEAWANLYYRFALAMDATDRSDTQALSAVRYPGIDAGVEGVRWVERCVLSADNDSIWVAYEGHHHHHH”, the protein production result is recorded as “not failed”.

With “MSLNYKNYTVMLVDDEQPILNSLKRLIKRLGCNIITFTSPLDALEALKGTSVQLVISDMRMPEMGGEVFLEQVAKSYPDIERVVISGYADAQATIDAVNRGKISRFLLKPWEDEDVFKVVEKGLQLAFLREENLRLQEETEAKNKQEGHHHHHH”, the protein production result is “not failed”.

With “MSLPANQIKEPGKQFQPAKSLKEPSQESLPGNLLKEPSQESRILCPDPDIVVELNVGGQFYTTTMGTLMKHPGSKFSEILSRSAKHYKDAQGRFFIDRPGTYFGPLLDYLRTGQVPTEYIPEVYQEAKFYQIHPLVKLLEDKPQIFGEQVARMQFLMGVPNYRENLEVLLHLARAEAVAMRSSKVVVCVVRTEEDDAKCTEPLHILEAKKTPVVKFGPWKAGPVTEDFVYCLEKDIRAKGYTVASQRYHLSRDPYTCFWILVFTWW”, the protein production entry was “failed”.

Regarding “MSLPRTLAFVSTLLLAAFCALPAQADSFIMRLLNKPVPGGVAVVDLGEEGPPPRAFYQGKPVLVVREEGRRWIAVVGIPLSTKPGPQKLEVRAATGNHEERFSVGSKHYREQRITLKNKRQVNPLPEDLKRIERELAEQTAAYRRFSPGLPSNLMLDKPVDGPLSSPFGLRRFFNGEERNPHSGLDFAVPAGTPIKAPAAGKVILIGDYFFNGKTVFVDHGQGFISMFCHLSKIDVKLGQQVPRGGVLGKVGATGRATGPHMHWNVSLNDARVDPAIFIGAFQPEGHHHHHH”, the protein production entry is “not failed”.

Consider “MSLPSSRTRGRPARLDRARTVQTALDLLNESGLDTLTMRRLAQAMDVQAGALYRYFAAKQDLLTAMAEHMVDGVADAAGATGDGDWSERTARLARALRAALLAHRDGARVFAGTHATGPNTLRFADGLVGVLREAGFGDGDAARALYSVANFTVGHTLEEQAALTPGGGGPLDEATLREAVAAGTYPHLAATLPVLTSTDFTAHFEFGLRLLLDGLRAVRQ”, for which the protein production result is on record as “not failed”.

On to “MSLQESSLVLSNGLGFVDTPYKAGTLEVDDTEDLIINCDEVDCTTFVEYALAMALCPQQGDEMQEGDFARNLQRIRYRDGKIDGYTSRLHYISDWINNAVRQGLLEDVTAAYSPFKQKLSLSYMSTHPELYKSLKNSPENVAQMAKYEKALSGKEVHYLPKDKLEPDGLPWIKNGDIIALTTNTPGLDVSHMGIAIYIKGQLHLLHASSKEGKVVVGKTALSQMLKDRKSLTGIRVLRMKKEGHHHHHH”, for which the protein production result is given as “not failed”.

Regarding “MSLQWECWPSLPCWRCFAASGRITLSIKRFTQNSRRHDMKITKINAIPLSYRLPEGKTVTMGVGSTIKRDAIIIRVETSEGITGYGEAHPGRSPGAITSLIHNTIAPMLIGMKATDCVGAWQRVHRMQLSSHGLGAGAALAISGIDMALWDIRGKAANMPLYELLGGSKRRIPAYAGGIALGYQPKESLAEEAQEYIARGYKALKLRIGDAARVDIERVRHVRKVLGDEVDILTDANTAYTMADARRVLPVLAEIQAGWLEEPFACNDFASYREVAKITPLVPIAAGENHYTRFEFGQMLDAGAVQVWQPDLSKCGGITEGIRIAAMASAYRIPINAHSSATGLNHAATIHFLAATENAGYFEACVSKFNPFRDMFGTSFEIGADGCVEPPDAPGLGIEVDESIFEKYPAVDGPGYVVKFEGHHHHHH”, the protein production entry is reported as “not failed”.

As for “MSLRDFGLLVLICLIWAGSNIISKLVVAHWGVPPLYYAAVRFALVAALTLPWLLPAPRPTWRMVLVGLLMGGGNFALLFMGFQTASPSAASVVIQVGVPFTTLLSVLILGEKIRWRRGLGIALTLLGAVVVMWSPKGIELSAGLWLIVAAAFTGSLGAVMMKQIEGVKPLQFQAWVGFSSVWPLAAMSAFMEPGQVAAGFAAGWPFVAAVVFSAVVVSILAHTAYYGLIQRYEANLIAPLTLMTPLFTIGMGVVVTNDHFDLRMGIGAALALLGVLIIALRRNQVMPLLTSLRSRLQ”, the protein production entry was “failed”.

As for “MSLRDTQTQLRNEMIYSVFVRNYSEAGNFAGVTADLQRIKDLGTDILWLLPINPIGEVNRKGTLGSPYAIKDYRGINPEYGTLADFKALTDRAHELGMKVMLDIVYNHTSPDSVLATEHPEWFYHDADGQLTNKVGDWSDVKDLDYGHHELWQYQIDTLLYWSQFVDGYRCDVAPLVPLDFWLEARKQVNAKYPETLWLAESAGSGFIEELRSQGYTGLSDSELYQAFDMTYDYDVFGDFKDYWQGRSTVERYVDLLQRQDATFPGNYVKMRFLENHDNARMMSLMHSKAEAVNNLTWIFMQRGIPLIYNGQEFLAEHQPSLFDRDTMVADRHGDVTPLIQKLVTIKQLPLLRAADYQLAVVEEGIVKITYRAAGEALTAWIPLKGQVTAVATKLAAGSYQNLLTDGPTEVVDGKLTVDGQPVLIKYVTNTAVTKVADQSNEGHHHHHH”, the protein production entry was “not failed”.

Regarding “MSLRHLYIEEGRTVCASATSRNRRPTSESPHSDDVVVVEGMLRGRPETRVHAMFDGFQGRHSAMWLAQNVMNYLNDLRDVNEEEITRQFERMDGDLRAANLPGGSSALIIFVRYEKKPTEARVVGRQIVPEGAKEFTSVAEALGGPLMPVVAMNFRRDPRAAKGIYTIHVASLGNSRCVLKSGRTAIHLSTPHTASSHKERHRVQAAGGVFTTVNGELLLGGVVPMTRAFGSFDFKKGGQGKLQQDLVSAVPDVTTFFAYPGDDIVAGTAGAFAHFRSHAAIAAAIALYPVSPETVLDAAKAMVVNAKRRKVTKNISTFVRHLPESRTRSQKMLEGTSGENGEEDFSIDRTNELTQALQAGFFSFLLYYEGHHHHHH”, the protein production entry was “not failed”.

For “MSLRKEPYLLVFGASVVDVFGFSKASYRPYNSTPGHVKISFGGVCRNIAENMARVGVNTNFMSILGNDEHGKSIVEHSKKIGYHMDDSMVIEGGSTPTYLAILDENGEMVSAIADMKSIGAMNTDFIDSKREIFENAEYTVLDSDNPEIMEYLLKNFKDKTNFILDPVSAEKASWVKHLIKDFHTIKPNRHEAEILAGFPITDTDDLIKASNYFLGLGIKKVFISLDADGIFYNDGVSCGKIKATEVDVKNVTGAGDSFVAGLGYGYMNKMPIEDIVKFAMTMSNITISHEETIHPDMALDTVLAKLEKTTWEEEKYDLNEGHHHHHH”, the protein production result was “not failed”.

As to “MSLRNPVLAGLSVEEIREAVSGEYLIEPREEKMVEQVVIGAMSPQSALRYLREARNAALVTGGDRSDLLLTALEMPNVRCLILTGNLEPVQLVLTKAEERGVPVILTGHDTLTAVSRLESVFGRTRIRGEPKVGIMRELFESEGHHHHHH”, the protein production entry is “not failed”.

In the case of “MSLRQVIPIPSPPAKYLLPEVTVLDYGKKCVVIDLDETLVHSSFKPISNADFIVPVEIDGTIHQVYVLKRPHVDEFLQRMGQLFECVLFTASLAKYADPVADLLDRWGVFRARLFRESCVFHRGNYVKDLSRLGRELSKVIIVDNSPASYIFHPENAVPVQSWFDDMTDTELLDLIPFFEGLSREDDEGHHHHHH”, the protein production result is reported as “not failed”.

Regarding “MSLSAPRITRVETAAIRAVGPSVLVRVWAGDEHGLGECYPSAPAAGIHHIVMNMEEQLLGEDPRDVERLYEKMRRWNIFTGGQAGAVITALSGIETALWDLAGKLQGVPVYRLLGGAFRRRVRLYADCNAGTVDAAAHHIEGGLFVEGSNEEYIAVAREAVERGFDAIKLDVDDITGPLHRDFWNGAISPREHEAMVARVAAVREAVGPEVEVAIDMHGRFDIPSSIRFARAMEPFGLLWLEEPTPPENLDALAEVRRSTSTPICAGENVYTRFDFRELFAKRAVDYVMPDVAKCGGLAEAKRIANLAELDYIPFAPHNVSSPVGTVAAAHVCAAVSNFAVLEWHAIDMPHWEDFVRYPGGPVIREGHIELTEEPGLGLELDEEAAFEHRHEKGGVPFFGRTEGHHHHHH”, the protein production result is on record as “not failed”.

Consider “MSLSDESFEFDVSVIGLGAMGTIMAQVLLKQGKRVAIWNRSPGKAAALVAAGAHLCESVKAALSASPATIFVLLDNHATHEVLGMPGVARALAHRTIVDYTTNAQDEGLALQGLVNQAGGHYVKGMIVAYPRNVGHRESHSIHTGDREAFEQHRALLEGLAGHTVFLPWDEALAFATVLHAHAFAAMVTFFEAVGAGDRFGLPVSKTARLLLETSRFFVADALEEAVRRLETQDFKGDQARLDVHADAFAHIAQSLHAQGVWTPVFDAVCQVVQRAAAMGYGDQDIAATTKSFAREQEEGHHHHHH”, for which the protein production result was “not failed”.

As for “MSLSDWHLAVKLADQPLAPKSILQLPETELGEYSLGGYSISFLKQLIAGKLQESVPDPELIDLIYCGRKLKDDQTLDFYGIQPGSTVHVLRKSW”, the protein production entry was “not failed”.

As for “MSLSEIKHWVFDMDGTLTIAVHDFAAIREALSIPAEDDILTHLAALPADESAAKHAWLLEHERDLAQGSRPAPGAVELVRELAGRGYRLGILTRNARELAHVTLEAIGLADCFAEADVLGRDEAPPKPHPGGLLKLAEAWDVSPSRMVMVGDYRFDLDCGRAAGTRTVLVNLPDNPWPELTDWHARDCAQLRDLLSAEGHHHHHH”, the protein production result is reported as “not failed”.

As to “MSLSEIKRKFDAVSGKYDEQRRKFIPCFDDFYGVSVSIASVDTENPDILDLGAGTGLLSAFLMEKYPEATFTLVDMSEKMLEIAKNRFRGNLKVKYIEADYSKYDFEEKYDMVVSALSIHHLEDEDKKELYKRSYSILKESGIFINADLVHGETAFIENLNKTIWRQYVENSGLTEEEIAAGYERSKLDKDIEMNQQLNWLKEAGFRDVSCIYKYYQFAVMFGRKTEGHHHHHH”, the protein production entry was “not failed”.

Consider “MSLSEPAWSLHSRLKEDTIDIGDLPLSKVLVIKDANYPWLLLVPRRPDAVEIIDLDEVQQAQLMTEISRVSRALKEITKCDKLNIAALGNLVPQLHVHIIARRTGDAAWPRPVWGVMQPLAHDATEVQNFISALRRKIWLGEGHHHHHH”, for which the protein production entry is reported as “not failed”.
